# Test results reported in patent US20070087000A1 (Pfizer, published 2007).
# Assays:
# [1] = biological target: T1, Human GDF-8 (mature, recombinant dimer), biotinylated in the ELISAs (human, UniProt O14793 267-375, biotinylated in the direct and competition ELISAs (sites not given)); experiment: competition ELISA: soluble ActRIIB-Fc as competitor of biotinylated GDF-8 binding to immobilized ActRIIB-Fc
# T1 construct: It was not biotinylated in the reporter assay; also called myostatin; growth and differentiation factor-8
# [2] = biological target: T1, Human GDF-8 (mature, recombinant …); experiment: competition ELISA: RK35 inhibits binding of biotinylated GDF-8 to immobilized ActRIIB-Fc; competition ELISA, biotinylated GDF-8 to immobilized ActRIIB-Fc
binder,measurement,setting,value
"Recombinant ActRIIB-Fc chimera (human ActRIIB fused to the human IgG constant region, Fc) (Fc fusion, UniProt Q13705 19-137, looked up, extracellular domain; The same protein was used immobilised and as the soluble positive control; also called soluble ActRIIB; soluble ActRIIB-Fc receptor; not shown: human IgG1 Fc region) SGRGEAETRECIYYNANWELERTNQSGLERCEGEQDKRLHCYASWRNSSGTIELVKKGCWLDDFNCYDRQECVATEENPQVYFCCCEGNFCNERFTHLPEAGGPEVTYEPPPTAPTLLT",IC50 (read off the curve),[1],~0.3 nM
"RK35 anti-GDF-8 mouse monoclonal antibody (antibody, V domains shown, Murine monoclonal antibody from a hybridoma (myostatin knockout BALB/c mice immunised with recombinant GDF-8 dimer); also called RK35 mAb; murine RK35) VH: EVQLVESGGGLVKPGGSLKLSCAASGFTFSSYAMSWVRQTPEKRLEWVATISSGGSYTSYPDSVKGRFTISRDNAKNTLYLQMSSLRSEDTAMYYCARQDYAMNYWGQGTSVTVSS VL: DIEMTQSHKFMSTSVGDRVSITCKASQDVSTAVAWYQQKPGQSPKLLLYSASYRYTGVPDRFTGSGSGTDFTFTISSVQAEDLAVYYCQQHYSTPWTFGGGTKLEIK",IC50,[2],~2.5 nM
